Reference: patent EP2548892A1 (CSL Behring GmbH, dated 2013)

Legend:
[1] = molecular target: Human FXIIa (activated Factor XII) (human) (UniProt P00748); experiment: cell-based or functional assay
[2] = molecular target: Human FXIIa beta (human) (UniProt P00748); experiment: Biacore, KD against parental 3F7 (the reference itself)
[3] = molecular target: Human FXIIa beta (human) (UniProt P00748); experiment: Biacore, purified IgG4 captured on anti-human IgG, FXIIa beta injected, 1:1 model
[4] = molecular target: Human FXIIa beta (human) (UniProt P00748); experiment: Biacore, purified IgG captured on anti-human IgG, FXIIa beta injected at 0-40 nM, 1:1 model, 25°C
[5] = molecular target: T1, Human FXII (unactivated Factor XII) (human, UniProt P00748 20-615); experiment: Biacore, purified IgG captured on anti-human IgG, FXII injected at 0-500 nM, 1:1 model, 25°C
T1 construct: Bought from Enzyme Research Laboratories; also called Hageman factor
T1 sequence: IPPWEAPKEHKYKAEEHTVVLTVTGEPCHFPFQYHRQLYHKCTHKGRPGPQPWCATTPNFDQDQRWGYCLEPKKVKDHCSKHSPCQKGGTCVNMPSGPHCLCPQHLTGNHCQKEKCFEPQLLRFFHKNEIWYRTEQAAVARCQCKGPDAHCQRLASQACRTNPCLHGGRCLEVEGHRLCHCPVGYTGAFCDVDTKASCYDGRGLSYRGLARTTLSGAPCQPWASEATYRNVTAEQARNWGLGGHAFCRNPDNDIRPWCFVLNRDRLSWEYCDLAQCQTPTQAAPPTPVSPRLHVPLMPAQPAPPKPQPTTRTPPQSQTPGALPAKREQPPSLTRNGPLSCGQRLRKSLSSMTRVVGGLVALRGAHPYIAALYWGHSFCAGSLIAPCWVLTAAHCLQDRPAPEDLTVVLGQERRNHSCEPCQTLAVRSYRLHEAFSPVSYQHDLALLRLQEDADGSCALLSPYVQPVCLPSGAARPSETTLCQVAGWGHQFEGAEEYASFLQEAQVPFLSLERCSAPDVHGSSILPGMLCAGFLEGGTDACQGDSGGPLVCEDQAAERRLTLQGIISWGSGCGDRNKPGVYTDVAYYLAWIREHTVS

potency in FXIIa amidolytic activity assay, against OT2 [1]: 2 fold
Fold affinity improvement [2]: 1 fold
Kd [3]: 8.6 nM
koff [3]: 0.0011 s⁻¹
kon [3]: 120000 M⁻¹ s⁻¹
Kd [4]: 6.2 nM
Kd [5]: 121 nM
B1: 3F7 monoclonal antibody (fully human IgG4/lambda) (antibody, V domains shown)
VH: EVQLLESGGGLVQPGGSLRLSCAASGFTFSKYIMQWVRQAPGKGLEWVSGIRPSGGTTVYADSVKGRFTISRDNSKNTLYLQMNSLRAEDTAVYYCARALPRSGYLISPHYYYYALDVWGQGTTVTVSS
VL: QSELTQPPSASGTPGQRVTISCSGSSSNIGRNYVYWYQQVPGTAPKLLIYSNNQRPSGVPDRFSGSKSGTSASLVISGLRSEDEADYYCAAWDASLRGVFGGGTKLTVLG
notes: also called 3F7 mAb; MAb 3F7
